Changes are numbered by the printed parent chain.
T1: human soluble IL-6R, recombinant (human, UniProt P08887 20-358)
T1 construct: also called human IL6-R; bio-IL-6R
T1 sequence (looked up): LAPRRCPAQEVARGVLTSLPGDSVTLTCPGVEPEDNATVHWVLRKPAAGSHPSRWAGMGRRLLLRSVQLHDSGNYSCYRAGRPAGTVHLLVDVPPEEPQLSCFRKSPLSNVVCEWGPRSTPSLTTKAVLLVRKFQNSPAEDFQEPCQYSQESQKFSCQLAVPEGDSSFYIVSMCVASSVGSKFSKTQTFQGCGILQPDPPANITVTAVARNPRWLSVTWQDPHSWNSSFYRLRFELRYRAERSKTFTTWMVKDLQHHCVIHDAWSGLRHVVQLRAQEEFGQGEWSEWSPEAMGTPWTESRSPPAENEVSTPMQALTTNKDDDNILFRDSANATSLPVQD

B1: IL6RPMP104B8 (VHH)
VHH: EVQLVESGGGLVQAGGSLRLSCAASGFAFDDYAIGWFRQAPGKEREGVSSISSSNGNTYYADSVRGRFTISSDNAKNTVYLQMNSLKPEDTGVYYCAAIWGIFFNEKMPVGAYDYWGQGTQVTVSS
notes: family 3; also called PMP104B08; IL6R104B8
B2: IL6RPMP107A1 (VHH)
VHH: EVQLVESGGGLVQAGGSLNLSCNASGDIGSINAMGWYRQAPGQQREWVAVITDTDSTIYPDSVKGRFAISRDGAKNTVHLRMSSLKPEDTAVYYCNAYQAGWGDYWGQGTQVTVSS
notes: also called IL6R107A1
B3: IL6RPMP103H9 (VHH)
VHH: EVQLVESGGGLVQPGGSLRLSCAASKSIFDINAMYWHRQAPGKQRESVASITSGGMRNYADSVKDRFTISKDNAKNTVYLQMNGLKPDDTAVYYCGLGRYEGGVWRDYWGQGTQVTVSS
notes: family 13; also called PMP103H09; IL6R103H9
B4: IL6RPMP107A9 (VHH)
VHH: EVQLVESGGGLVQAGGSLRLSCAASGGIFSDMFMGWFRQAPGKSRESVARISPSGNTFYQDSVRGRFTISTDNAKNTVYLQMNNLKPEDTAVYYCAANVGVTGSYEYWGQGTQVTVSS
notes: family 21; also called IL6R107A9
B5: IL6RPMP120G6 (VHH)
VHH: EVQLVESGGDLVQTGGSLRLSCAASGITVSDRAMGWYRQAPGKQREMVAGVSRGGMTSYADSVKGRLTISRDNAKNSVYLQMNSLNPEDTAVYYCSAYYRYGSSVPQYWGQGTQVTVSS
B6: IL6RPMP100G11 (VHH)
VHH: EVQLVESGGGLVQAGGSLRLSCAASGRGFSPYTMGWFRQAPGKERVFVAGISWSTGIAHYTDSVKGRFTISRDNAKNTGSLQMNSLKPEDTAVYYCAVVQTTKGNYDYWGQGTQVTVSS
notes: family 4; also called IL6R100G11
B7: IL6RPMP108E1 (VHH)
VHH: EVQLVESGGGLVQAGGSLRLSCAASGFTFDDYDIGWFRQAPGKEREGVSGISSSDGNTYYADSVKGRFTISSDNAKNTVYLQMNSLKPEDTAVYYCAAEPPDSSWYLDGSPEFFKYWGQGTQVTVSS
notes: family 20; also called PMP108E01
B8: IL6RPMP107B4 (VHH)
VHH: EVQLVESGGGLVQAGGSLRLSCVASGLRLNMHRMGWFRQAPGKEREFVARIFTDDGDSYYADSVQGRFTISGDNAKNTVYLQMNSLKPEDTGVYFCAAGYMSGAESPIGYDNWGQGTQVTVSS
notes: family 17; periplasmic extract; also called PMP107B04
B9: IL6RPMP108C9 (VHH)
VHH: EVQLVESGGGLVQAGGSLRLSCAASGRTYAMAWFRQAPGKEREFVAAISIVTDYADSVKGRFNISRDNRENTVYLQMNSLKPEDTAVYYCAANTYYSGAYFPRGHEWYEYWGQGTQVTVSS
notes: family 16; periplasmic extract
B10: IL6RPMP108E9 (VHH)
VHH: EVQLVESGGGLVQAGGSLRLSCAFSRRSFGNFPMGWFRQRPGEEREYVAVISWNNNYIHYRDSVKGRFTASRDTSENRMYLQMNGLKPEDTAVYYCAARTKDNTLFTPAEEYDYWGQGTQVTVSS
notes: family 15; periplasmic extract
B11: IL6RPMP105H10 (VHH)
VHH: B1 VHH with L4M, T91A
notes: family 3; periplasmic extract
B12: IL6RPMP105B8 (VHH)
VHH: B1 VHH with Q13R
notes: family 3; periplasmic extract
B13: IL6RPMP106D6 (VHH)
VHH: EVQLVESGGGLVQAGGSLRLSCAASGFTFDDYAIGWFRQAPGKEREGVSCMISSDGSTYYADSVKGRFTISSDNAKNTVYLQMDSLKPEDTAVYYCAADLSLYGCYVGDRDLYDYDYWGQGTQVTVSS
notes: family 22; periplasmic extract; also called PMP106D06
B14: IL6RPMP103C3 (VHH)
VHH: EVQLVESGGGLVQPGGSMRLSCAATGAIFSISTMGWYRQAPGAQREFVAGVGLDGTPNYADSVKGRFTISRDNTKNTVSLQMENLKPEDTGVYYCNIDEGMDYDGNFYDRWGQGTQVTVSS
notes: family 14; periplasmic extract
B15: IL6RPMP107E4 (VHH)
VHH: EVQLVESGGGLVQAGGSLRLSCAASGSIDRINAMGWYRQAPGKQRDFLAVITDGDKTLYADSVKGRFTISNDNAKNTVYLQMNSLKPEDTAVYYCNAYQAGWGDYWGQGTQVTVSS
notes: periplasmic extract
B16: IL6RPMP103F2 (VHH)
VHH: EVQLVESGGGLVQAGGSLRLSCVASGHTSDTYIMAWFRQAPGKEREFVASILWDGSITYYADSVKDRFTISRDISRKTLYLQMNSLRPEDTATYTCARGIYFSRRYVDPGIYGTWGQGTQVTVSS
notes: family 26; periplasmic extract
B17: IL6RPMP101A5 (VHH)
VHH: EVQLVESGGGLVQAGGSLRLSCTASGRTFSDYDMGWFRQAPGKERECVAIIDTNGDNTLIVGSVKGRFAISSDNAKNTVYLQMNSLLPEDTAVYTCAAGVWSSLRHTAANYWGQGTQVTVSS
notes: family 5; periplasmic extract
B18: IL6RPMP104B9 (VHH)
VHH: B17 VHH
notes: family 5; periplasmic extract
B19: IL6RPMP101B6 (VHH)
VHH: EVQLVESGGGLVQAGGSLRLSCAASGSDFSIKAMGWYRQAPGKQRELVARITSGGSTVYADSVKGRFTISRDNAKNTVYLQMNSLKPEDATVYYCNAIVTYSDYDLGNDYWGQGTQVTVSS
notes: family 7; periplasmic extract
B20: IL6RPMP101G11 (VHH)
VHH: EVQLVESGGGLVQPGGSLRLSCAASASGFTLDYYAIGWFRQAPGKEREGVSCISSTDGSTYYADSVKGRFTISRDNAKNTVYLQMNSLNPEDTGVYTCAAVLTTAQAMGVPTRSYEYDYWGQGTQVTVSS
notes: family 2; periplasmic extract
B21: IL6RPMP106B2 (VHH)
VHH: EVQLVESGGGLVQAGGSLRLSCAASGSIFRINAMGWYRQAPGKQRELVAAAISGGSTNYADFVKGRFTISRDNAKNTVYLQMNSLKPEDTAVYYCNALVVSHNYSDYVPFPDDYWGQGTQVTVSS
notes: family 6; periplasmic extract
B22: IL6RPMP105D3 (VHH)
VHH: B21 VHH with V5E
notes: family 6; periplasmic extract
B23: IL6RPMP105C2 (VHH)
VHH: B21 VHH with K43E
notes: family 6; periplasmic extract
B24: IL6RPMP106F7 (VHH)
VHH: B21 VHH with G8E
notes: family 6; periplasmic extract
B25: IL6RPMP104E7 (VHH)
VHH: EVQLVESGGGLVQAGGSLRLSCAAGGSIFSINAMGWYRQAPGKQRELVASITSGGSTTYADSVKGRFTISRDNAKDTVYLQMNSLKPEDTAVYYCNAHIRFPFPNDYWGQGTQVTVSS
notes: family 18; periplasmic extract; also called PMP104E07
B26: IL6RPMP108D1 (VHH)
VHH: B17 VHH with I50V, I60T, S72R, V100A, H106S, Q117K
B27: IL6RPMP108F7 (VHH)
VHH: B17 VHH with I50V, I60T, S72R, V100A, H106S
B28: IL6RPMP108D10 (VHH)
VHH: B17 VHH with L11S, I50V, I60T, S72R, V100A, H106S
B29: IL6RPMP108C10 (VHH)
VHH: B17 VHH with A14P, I50V, I60T, S72R, V100A, H106S
B30: IL6RPMP103B2 (VHH)
VHH: EVQLVESGGGLVQPGGSLRLSCAASGSTFSINMMAWYCQAPGKQRELVASISSGGGINYADSVKGRFTISRDYAENSVDLQMNSLKPEDTAVYYCNARGTYLNGDHYSTNYNSWGQGTQVTVSS
B31: IL6RPMP100D11 (VHH)
VHH: EVQLVESGGGLVQAGDSLRLSCLASGRSFKDDAMGWFRQAPGKEREFVSGIDWRGNIVDAESVKGRFTISRENAKNTLYLQMNHLKPEDTAVYYCAASSVFSDLRYRKNPKYWGQGTQVTVSS
B32: IL6RPMP103A5 (VHH)
VHH: EVQLVESGGGLVQAGDSLRLSCVASGLPFSTLHMGWFRQAPGKEHESVSAISSDGGSEYYAGSVKGRFTISRDNAKNTVYLQMNSLKPEDTAVYYCAADPRRIGANIKYSDYWGQGTQVTVSS
B33: IL6RPMP103A2 (VHH)
VHH: EVQLVESGGGLVQPGGSLRLSCAASGSIFSINTMGWYRQVPGKQRELVATVRSGSITNYADSVQDQFTITRDIDENTVYLQMNSLKPEDTAVYYCLTRASVPGRGYQDYWGQGTQVTVSS
B34: IL6RPMP103A4 (VHH)
VHH: B33 VHH with Q66R

Target: IL-6R on the surface of TF-1 cells (UniProt P08887)
Sequence (P08887 20-468 limits assumed): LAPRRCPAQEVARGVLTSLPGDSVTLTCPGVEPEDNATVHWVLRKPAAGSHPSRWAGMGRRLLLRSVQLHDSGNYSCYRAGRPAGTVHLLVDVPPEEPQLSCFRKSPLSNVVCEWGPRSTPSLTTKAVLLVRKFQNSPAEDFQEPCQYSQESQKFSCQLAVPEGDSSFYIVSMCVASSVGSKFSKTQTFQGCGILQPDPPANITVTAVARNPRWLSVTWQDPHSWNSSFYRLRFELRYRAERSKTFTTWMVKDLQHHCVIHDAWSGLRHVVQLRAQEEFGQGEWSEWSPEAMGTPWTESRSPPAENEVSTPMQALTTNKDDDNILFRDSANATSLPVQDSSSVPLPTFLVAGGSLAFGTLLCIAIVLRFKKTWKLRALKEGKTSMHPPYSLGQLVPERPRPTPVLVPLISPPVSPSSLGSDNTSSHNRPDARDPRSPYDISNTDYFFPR
Test: cell-based or functional assay

Row | IC50, IL-6-dependent proliferation of TF-1 cells | Binder
1 | 245 nM | B1
2 | 4.05 nM | B2
3 | 1470 nM | B3
4 | 349 nM | B4
5 | 10.2 nM | B5
6 | 116 nM | B6
7 | 0.149 nM | B7

Target: T1, human soluble IL-6R, recombinant
Test: Biacore, periplasmic extract
Procedure: Periplasmic extracts of representative family clones were also analyzed on Biacore. Dissociation curves were used to calculate koff rates. koff rates are depicted in Table C-6.

Row | koff | binding result | Binder
8 | 0.01 s⁻¹ | – | B8
9 | – | no binding | B9
10 | – | no binding | B10
11 | 0.01 s⁻¹ | – | B1
12 | 0.01 s⁻¹ | – | B11
13 | 0.01 s⁻¹ | – | B12
14 | 0.001 s⁻¹ | – | B13
15 | – | no binding | B14
16 | 0.00075 s⁻¹ | – | B2
17 | 0.01 s⁻¹ | – | B3
18 | 0.01 s⁻¹ | – | B15
19 | – | no binding | B16
20 | 0.01 s⁻¹ | – | B4
21 | 0.00027 s⁻¹ | – | B17
22 | 0.00023 s⁻¹ | – | B18
23 | 0.00058 s⁻¹ | – | B19
24 | 0.00027 s⁻¹ | – | B6
25 | 0.0001 s⁻¹ | – | B7
26 | 0.00042 s⁻¹ | – | B20
27 | 0.01 s⁻¹ | – | B21
28 | 0.01 s⁻¹ | – | B22
29 | 0.01 s⁻¹ | – | B23
30 | 0.01 s⁻¹ | – | B24
31 | 0.001 s⁻¹ | – | B25

Target: cynomolgus IL-6R used in Biacore (cynomolgus monkey)
Test: Biacore, periplasmic extract

Row | koff | Binder
32 | 0.01 s⁻¹ | B8
33 | 0.01 s⁻¹ | B1
34 | 0.01 s⁻¹ | B11
35 | 0.01 s⁻¹ | B12
36 | 0.01 s⁻¹ | B2
37 | 0.01 s⁻¹ | B3
38 | 0.01 s⁻¹ | B4
39 | 0.00045 s⁻¹ | B17
40 | 0.00079 s⁻¹ | B26
41 | 0.00074 s⁻¹ | B27
42 | 0.0009 s⁻¹ | B28
43 | 0.00071 s⁻¹ | B29
44 | 0.00074 s⁻¹ | B18
45 | 0.00045 s⁻¹ | B30
46 | 0.001 s⁻¹ | B19
47 | 0.00074 s⁻¹ | B31
48 | 0.00045 s⁻¹ | B6
49 | 0.00074 s⁻¹ | B32
50 | 0.001 s⁻¹ | B33
51 | 0.00045 s⁻¹ | B34
52 | 0.001 s⁻¹ | B7
